In patent US20240343820A1 (KITE PHARMA, published 2024):
Residue numbers refer to the chain shown, from its start.

B1: 8G8 (antibody, V domains shown)
VH: QVQLQQPGAELVRPGSSVKLSCKASGYTFTNYWMDWVKQRPGQGLEWIGNIYPSDSETHYNQNFKDKATLTVDKSSSTAYMQLSSLTSEDSAVYYCARDYYWGQGTTLTVSS
VL: QAVVTQESALTTSPGETVTLTCRSSTGAVTRSNYANWVQEKPDHLFTGLIGGTNNRALGVPARFSGSLIGDKAALTITGAQTEDEAIYFCALWYSNHLVFGGGTKLTVLQ
notes: Anti-GALV gp70; One id for the hybridoma supernatant and the recombinant murine IgG2a antibody; also called 8G8-HC2 / 8G8-LC2
B2: 2D3 (antibody, V domains shown)
VH: B1 VH with N63K, K65R, S75P
VL: B1 VL with R31T, T82I
notes: Anti-GALV gp70; One id for the hybridoma supernatant and the recombinant murine IgG2a antibody; also called 2D3-HC1 / 2D3-LC1
B3: 4F1 (antibody, V domains shown)
VH: B1 VH with N31S, V37M, N50H, N63K, K67R, T78A, Y80F
VL: B1 VL with R31T, L58P
notes: Anti-GALV gp70; One id for the hybridoma supernatant and the recombinant murine IgG2a antibody; also called 4F1-HC / 4F1-LC1
B4: 9A1 (antibody, V domains shown)
VH: B1 VH with K19R, N31S, N63K
VL: B1 VL with L58P
notes: Anti-GALV gp70; One id for the hybridoma supernatant and the recombinant murine IgG2a antibody; also called 9A1-HC3 / 9A1-LC1
B5: 9G11 (antibody, V domains shown)
VH: B1 VH with N50H, N61I, N63K, S77N
VL: B1 VL with R31T, L58P, N96S, H97Q
notes: Anti-GALV gp70; One id for the hybridoma supernatant and the recombinant murine IgG2a antibody; also called 9G11-HC / 9G11-LC
B6: 35C11 (antibody, V domains shown)
VH: QVQLQQSGPELVRPGVSVKISCKVSGYTFTDYTMHWVKQSHAKSLEWIGLISTYSGKTNYNQKLKDKATMTVDKSSSTAYMELARLTSEDSAIFYCARGGLRDAMDYWGQGTSVTVSS
VL: DIVLTQSPASLAVSLGQGATISCRASESVDSYGNSFMHWYQQKPGQPPKLLIYRASNLESGIPARFSGSGSGTDFTLTINPVEADDVATYYCLQSNEDPRTFGGGTKLEIK
notes: also called 35C11-HC / 35C11-LC
B7: 40A3 (antibody, V domains shown)
VH: DVQLQESGPDLVKPSQSLSLTCTVTDFSITSDYTWHWVRQFPGNKLEWMAYIHYSGGTNYNPSLRSRISITRDTSKNQFFLHMNSVTTEDTATYYCLYYGSRDAVDYWGQGTSVTVSS
VL: QIVLTQSPAIMSASPGEKVTMTCSTSSSVTYMHWYQQKSGTSPKRWIYDTSKLASGVPARFSGSGSGTSYSLTISSMEAEDAATYYCQQWSSSPYTFGGGTKLEIK
notes: Anti-GALV gp70; One id for the hybridoma supernatant and the recombinant murine IgG2a antibody; also called 40A3-HC / 36H3-LC
B8: 40A6 (antibody, V domains shown)
VH: EVQLVESGGGLVKPGGSLKLSCAASGFTFSSYVLSWVRQIPEKRLEWVATINSGGSYTYYPDSVKGRFTISRDNAKNTLYLQMSSLRSEDTAIYYCARHLIYYDYDGYYFDTWGQGTSLTVSS
VL: DVVMTQTPLSLPVSLGDQASISCRSSQTLVHSNGNIYLHWYLQKPGQSPKLLIYKVSNRFSGVPDRFSGSGSGTDFTLKISRVETEDLGIYFCSQTTHVPPTFGGGTKLEIK
notes: Anti-GALV gp70; One id for the hybridoma supernatant and the recombinant murine IgG2a antibody; also called 40A6-HC / 40A6-LC
B9: huIgG1 monoFc tagged GALV gp70 protein (residues 505-616) (Fc fusion)
chain: not shown
notes: Residues are numbered according to Uniprot P21415; also called gp70 (505-616); coiled-coil (CC) domain of GALV gp70
B10: huIgG1 monoFc tagged GALV gp70 protein (residues 42-616) (Fc fusion)
chain: TSLQNKNPHQPMTLTWQVLSQTGDVVWDTKAVQPPWTWWPTLKPDVCALAASLESWDIPGTDVSSSKRVRPPDSDYTAAYKQITWGAIGCSYPRARTRMASSTFYVCPRDGRTLSEARRCGGLESLYCKEWDCETTGTGYWLSKSSKDLITVKWDQNSEWTQKFQQCHQTGWCNPLKIDFTDKGKLSKDWITGKTWGLRFYVSGHPGVQFTIRLKITNMPAVAVGPDLVLVEQGPPRTSLALPPPLPPREAPPPSLPDSNSTALATSAQTPTVRKTIVTLNTPPPTTGDRLFDLVQGAFLTLNATNPGATESCWLCLAMGPPYYEAIASSGEVAYSTDLDRCRWGTQGKLTLTEVSGHGLCIGKVPFTHQHLCNQTLSINSSGDHQYLLPSNHSWWACSTGLTPCLSTSVFNQTRDFCIQVQLIPRIYYYPEEVLLQAYDNSHPRTKREAVSLTLAVLLGLGITAGIGTGSTALIKGPIDLQQGLTSLQIAIDADLRALQDSVSKLEDSLTSLSEVVLQNRRGLDLLFLKEGGLCAALKEECCFYIDHSGAVRDSMKKLKEKLDKRQLERQKSQN
notes: Residues are numbered according to Uniprot P21415; also called gp70 (42-616); RBD+CC domains
B11: huIgG1 monoFc tagged GALV gp70 protein (residues 42-474) (Fc fusion)
chain: TSLQNKNPHQPMTLTWQVLSQTGDVVWDTKAVQPPWTWWPTLKPDVCALAASLESWDIPGTDVSSSKRVRPPDSDYTAAYKQITWGAIGCSYPRARTRMASSTFYVCPRDGRTLSEARRCGGLESLYCKEWDCETTGTGYWLSKSSKDLITVKWDQNSEWTQKFQQCHQTGWCNPLKIDFTDKGKLSKDWITGKTWGLRFYVSGHPGVQFTIRLKITNMPAVAVGPDLVLVEQGPPRTSLALPPPLPPREAPPPSLPDSNSTALATSAQTPTVRKTIVTLNTPPPTTGDRLFDLVQGAFLTLNATNPGATESCWLCLAMGPPYYEAIASSGEVAYSTDLDRCRWGTQGKLTLTEVSGHGLCIGKVPFTHQHLCNQTLSINSSGDHQYLLPSNHSWWACSTGLTPCLSTSVFNQTRDFCIQVQLIPRIYYYPEE
notes: also called gp70 (42-474)

Target: B11
Assay: BLI Octet Red96; antibody on AMC biosensor, 100 nM monoFc-gp70(42-474) analyte

**Q.** What does the source list for B1?
**A.** Kd: 193 pM; koff: 6.31e-05 s⁻¹; kon: 328000 M⁻¹ s⁻¹

**Q.** B2 was tested. Which Kd did it give?
**A.** The Kd was 1710 pM.

**Q.** And the koff?
**A.** Its koff is 0.00048 s⁻¹.

**Q.** And the kon?
**A.** Its kon is 281000 M⁻¹ s⁻¹.

**Q.** Which Kd does the source give for B3 here?
**A.** Its Kd is 1690 pM.

**Q.** What about the koff of the same binder?
**A.** Its koff is 0.000607 s⁻¹.

**Q.** What about the kon of the same binder?
**A.** Its kon is 359000 M⁻¹ s⁻¹.

**Q.** What does the source list for B4?
**A.** Kd: 1400 pM; koff: 0.000447 s⁻¹; kon: 318000 M⁻¹ s⁻¹

**Q.** For B5, which Kd is on record?
**A.** The Kd was 704 pM.

**Q.** What about the koff of the same binder?
**A.** Its koff is 0.000257 s⁻¹.

**Q.** What about the kon of the same binder?
**A.** The kon was 366000 M⁻¹ s⁻¹.

**Q.** With B6 as the binder, how does the Kd read?
**A.** Its Kd is 12.2 pM.

**Q.** And the koff?
**A.** The koff was 6.29e-07 s⁻¹.

**Q.** And the kon?
**A.** The kon was 51500 M⁻¹ s⁻¹.

**Q.** What does the source list for B7?
**A.** Kd: 5.24 pM; koff: 6e-07 s⁻¹; kon: 114000 M⁻¹ s⁻¹

**Q.** What does the source list for B8?
**A.** Kd: 17.5 pM; koff: 6.72e-07 s⁻¹; kon: 38300 M⁻¹ s⁻¹

Target: B9
Assay: indirect ELISA, hybridoma supernatant on coated monoFc-tagged gp70 (505-616)

**Q.** Does B3 bind?
**A.** Result: no binding

**Q.** Does B5 bind?
**A.** Result: no binding

**Q.** Does B7 bind?
**A.** Result: no binding

Target: T1, SLC20A1 (PIT1) receptor (UniProt Q8WUM9 1-679, limits assumed)
T1 construct: whole, on cells; Endogenous on K562 cells (a human cell line)
T1 sequence (looked up): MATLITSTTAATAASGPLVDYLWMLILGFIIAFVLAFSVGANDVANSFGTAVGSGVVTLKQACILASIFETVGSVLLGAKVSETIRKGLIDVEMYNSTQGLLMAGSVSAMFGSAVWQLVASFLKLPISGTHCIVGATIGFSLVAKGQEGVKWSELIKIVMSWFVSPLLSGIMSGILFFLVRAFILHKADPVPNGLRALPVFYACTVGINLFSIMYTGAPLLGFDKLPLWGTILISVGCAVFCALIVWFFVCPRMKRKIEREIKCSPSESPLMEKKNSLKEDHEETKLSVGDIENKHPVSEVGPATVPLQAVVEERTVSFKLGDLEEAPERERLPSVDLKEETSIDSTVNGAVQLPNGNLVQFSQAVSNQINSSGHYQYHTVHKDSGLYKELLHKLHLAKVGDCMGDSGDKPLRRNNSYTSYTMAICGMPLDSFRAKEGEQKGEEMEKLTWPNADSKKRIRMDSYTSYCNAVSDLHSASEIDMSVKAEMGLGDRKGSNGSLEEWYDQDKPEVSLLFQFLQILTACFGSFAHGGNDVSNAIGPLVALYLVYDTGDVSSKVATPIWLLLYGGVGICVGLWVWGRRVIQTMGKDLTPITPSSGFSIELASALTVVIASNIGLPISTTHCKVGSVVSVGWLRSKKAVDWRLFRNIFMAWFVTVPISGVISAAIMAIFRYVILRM
Assay: flow cytometry, monoFc-tagged gp70 (505-616) on K562 cells (endogenous SLC20A1), PE anti-human Fc secondary

**Q.** Does B9 bind?
**A.** Result: no binding (tested: 10.00 ug/100ul)

Target: T1, SLC20A1 (PIT1) receptor
Assay: flow cytometry, monoFc-tagged gp70 protein on K562 cells (endogenous SLC20A1), PE anti-human Fc secondary; CHO as negative cells

**Q.** Does B10 bind?
**A.** Result: binds

**Q.** Does B11 bind?
**A.** Result: binds
